Where no end group is shown, it is not given here.

One test addresses T1, Human CD3eg linker (human).
T1 construct: Single chain: CD3 epsilon and gamma subunits joined by a 29-mer linker, Flag-tag at the C-terminus; also called recombinant human CD3
T1 chain: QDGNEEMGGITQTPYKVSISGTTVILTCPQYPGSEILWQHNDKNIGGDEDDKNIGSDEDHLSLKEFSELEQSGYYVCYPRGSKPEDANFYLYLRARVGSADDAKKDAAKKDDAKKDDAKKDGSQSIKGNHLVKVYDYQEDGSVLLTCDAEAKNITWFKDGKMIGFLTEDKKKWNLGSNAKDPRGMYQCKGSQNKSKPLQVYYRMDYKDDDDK
The experiment in a line: SPR Biacore T200, 37 C, Ab captured on anti-human Fc, antigen as analyte.

For the next test, the target named is T2, Human CD137 ECD (human).
T2 construct: also called human CD137 extracellular domain; recombinant human CD137
The test is described as above.

Test [1] deals with T3, human CD137-Fc (human, biotin-labeled).
T3 construct: if 90 already holds the Fc, drop the second piece; also called biotin-labeled human CD137 fused to human IgG1 Fc fragment; biotin-human CD137-Fc; not shown: human IgG1 Fc fragment
The experiment in a line: bead ELISA on biotin-human CD137-Fc with 62.5 pmol free human Fc (control competitor).

Test [2] concerns the target T3, human CD137-Fc. Description: bead ELISA on biotin-human CD137-Fc, 0 pmol free CD3e peptide.
The target in test [3] is T3, human CD137-Fc. The experiment in a line: bead ELISA on biotin-human CD137-Fc with 125 pmol/well free CD3e peptide as competitor.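 Further: Streptavidin-coated magnetic beads in blocking buffer as the capture surface, well signal read as fluorescence 2 min after adding APS-5 substrate.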
Test [4] has as its target T4, Biotin-labeled CD3 epsilon peptide antigen (human, also: biotin-labeled, site not given here).
T4 construct: also called CD3 peptide
T4 peptide: QDGNEEMGGITQTPY
The experiment in a line: bead ELISA, IgG on biotinylated CD3 epsilon peptide, luminescence.

Test [5] deals with T3, human CD137-Fc. Description: bead ELISA on biotin-human CD137-Fc, free CD3e peptide vs free Fc.
The target in a further test is T5, cyno CD137-Fc (cynomolgus monkey; human, limits assumed, biotin-labeled).
T5 construct: whole entry 92 named; also called biotin-labeled cynomolgus monkey CD137 fused to human IgG1 Fc fragment; not shown: human IgG1 Fc fragment
T5 chain: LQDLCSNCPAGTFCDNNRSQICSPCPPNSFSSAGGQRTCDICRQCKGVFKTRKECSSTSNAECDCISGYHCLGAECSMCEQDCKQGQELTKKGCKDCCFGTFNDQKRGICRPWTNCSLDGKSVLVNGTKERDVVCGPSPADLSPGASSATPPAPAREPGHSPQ
Description: bead ELISA, IgG on biotinylated antigen, luminescence.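 Further: biotinylated antigen captured on streptavidin magnetic beads, then incubated with purified IgG at 50 ng/µL for 1 h at room temperature before detection.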

The target of test [6] is T3, human CD137-Fc. The description is as above.
In test [7] the target is T3, human CD137-Fc. The experiment in a line: bead ELISA on biotin-human CD137-Fc with 62.5 pmol free CD3e peptide as competitor.
Test [8] has as its target T3, human CD137-Fc. The experiment in a line: bead ELISA on biotin-human CD137-Fc, 125 vs 0 pmol free CD3e peptide.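 Further: target captured on streptavidin-coated magnetic beads, signal read as fluorescence 2 min after adding APS-5 substrate.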

B1: GPC3/CD137xCD3 (bispecific antibody, V domains shown)
VH 1: QVQLQQWGAGLLKPSETLSLTCAVYGGSFSGYYWSWIRQSPEKGLEWIGEINHGGYVTYNPSLESRVTISVDTSKNQFSLKLSSVTAADTAVYYCARDYGPGNYDWYFDLWGRGTLVTVSS
VL 1: EIVLTQSPATLSLSPGERATLSCRASQSVSSYLAWYQQKPGQAPRLLIYDASNRATGIPARFSGSGSGTDFTLTISSLEPEDFAVYYCQQRSNWPPALTFGGGTKVEIK
VH 2: QVQLVESGGGLVQPGRSLRLSCAASGFTFSNAWMHWVRQAPGKGLEWVAQIKDRANSYNTYYAESVKGRFTISRDDSKNSIYLQMNSLKTEDTAVYYCRYVHYTTYAGSSFSYGVDAWGQGTTVTVSS
VL 2: DIVMTQSPLSLPVTPGEPASISCRSSQPLVHSNRNTYLHWYQQKPGQAPRLLIYKVSNRFSGVPDRFSGSGSGTDFTLKISRVEAEDVGVYYCGQGTQVPYTFGQGTKLEIK
VH 3: QVQLVQSGAEVKKPGASVTVSCKASGYTFTDYEMHWIRQPPGEGLEWIGAIDGPTPDTAYSEKFKGRVTLTADKSTSTAYMELSSLTSEDTAVYYCTRFYSYTYWGQGTLVTVSS
VL 3: DIVMTQSPLSLPVTPGEPASISCRSSQPLVHSNRNTYLHWYQQKPGQAPRLLIYKVSNRFSGVPDRFSGSGSGTDFTLKISRVEAEDVGVYYCGQGTQVPYTFGQGTKLEIK
notes: Fc gamma R silent Fc; also called GPC3/CD137 x CD3 trispecific antibody (2+1)
As to B1, in the test with Human CD3eg linker, the Kd is 19.7 nM, the koff was 0.00161 s⁻¹ and the kon is 81800 M⁻¹ s⁻¹. Also, in the test with Human CD137 ECD, the Kd turned out to be 37.7 nM, the koff was 0.0206 s⁻¹ and the kon worked out at 547000 M⁻¹ s⁻¹.

B2: DADU01_3#002 (antibody, V domains shown)
VH: QVQLVESGGGLVQPGRSLRLSCAASGFTFSNAWMHWVRQAPGKGLEWVAQIKDKQNLYNAYYAESVKGRFTISRDDSKNSIYLQMNSLKTEDTAVYYCHYVHYASASTVLPAFGVDAWGQGTTVTVSS
VL: DIVMTQSPLSLPVTPGEPASISCRSSQSLVHSNRNTYLHWYQQKPGQAPRLLIYKVSNRFSGVPDRFSGSGSGTDFTLKISRVEAEDVGVYYCGQGTQVPYTFGQGTKLEIK
notes: Human IgG1; light chain GLS3000 (kappa); also called dBBDu124
With B2, the ELISA signal with human CD137-Fc [1] is 155000; in the test with human CD137-Fc [2], 6620; with human CD137-Fc [3], 2120; in the test with human CD137-Fc [7], 9970. The results for the RLU (in test [4]; with cyno CD137-Fc; with human CD137-Fc [6]) were 174000 RLU, 10800 RLU and 39100 RLU, respectively. Moreover, in test [4], the “S/N ratio (CD3 peptide/non coating)” value came to 156. In addition, the Signal decrease in the test with human CD137-Fc [5] turned out to be 93.6%; with human CD137-Fc [8] it was 68%. In addition, the “S/N ratio (cyno CD137-Fc/Fc)” value with cyno CD137-Fc stood at 5.6. Further, the “S/N ratio (human CD137-Fc/Fc)” value with human CD137-Fc [6] amounted to 20.3.

B3: DXDU01_3#019 (antibody, V domains shown)
VH: QVQLVESGGGLVQPGRSLRLSCAASGFTFSIAWMHWVRQAPGKGLEWVAQIKDKVNGYTAYYAESVKGRFTISRDDSKNSIYLQMNSLKTEDTAVYYCRYVHYAAYYDVLGYGGVDAWGQGTTVTVSS
VL: DIVMTQSPLSLPVTPGEPASISCRSSQSLVHSNRNTYLHWYQQKPGQAPRLLIYKVSNRFSGVPDRFSGSGSGTDFTLKISRVEAEDVGVYYCGQGTQVPYTFGQGTKLEIK
notes: Human IgG1; light chain GLS3000 (kappa); also called dBBDu125
Consider B3, for which the ELISA signal with human CD137-Fc [1] came out at 172000; in the test with human CD137-Fc [2], 61400; in the test with human CD137-Fc [3] it was 2060; with human CD137-Fc [7], 12800. For the same molecule, the results for the RLU (in test [4]; with cyno CD137-Fc; in the test with human CD137-Fc [6]) were 191000 RLU, 5090 RLU and 77800 RLU, respectively. For the same molecule, in test [4], the “S/N ratio (CD3 peptide/non coating)” value was found to be 161. For the same molecule, the Signal decrease in the test with human CD137-Fc [5] worked out at 92.5%; with human CD137-Fc [8], 96.7%. Also, the “S/N ratio (cyno CD137-Fc/Fc)” value in the test with cyno CD137-Fc is 1.56. In addition, the “S/N ratio (human CD137-Fc/Fc)” value with human CD137-Fc [6] was determined as 23.8.

B4: DXDU01_3#051 (antibody, V domains shown)
VH: QVQLVESGGGLVQPGRSLRLSCAASGFTFSNAWMHWVRQAPGKGLEWVAQIKDRGQQYNAYYAPSVKGRFTISRDDSKNSIYLQMNSLKTEDTAVYYCHYVHYASASSVLPGYGVDAWGQGTTVTVSS
VL: DIVMTQSPLSLPVTPGEPASISCRSSQSLVHSNRNTYLHWYQQKPGQAPRLLIYKVSNRFSGVPDRFSGSGSGTDFTLKISRVEAEDVGVYYCGQGTQVPYTFGQGTKLEIK
notes: Human IgG1; light chain GLS3000 (kappa); also called dBBDu127
With B4, the ELISA signal in the test with human CD137-Fc [1] is 128000; with human CD137-Fc [2] it was 3230; with human CD137-Fc [3], 2200; with human CD137-Fc [7], 10800. Further, the results for the RLU (in test [4]; with cyno CD137-Fc; in the test with human CD137-Fc [6]) were 169000 RLU, 10900 RLU and 38100 RLU, respectively. The “S/N ratio (CD3 peptide/non coating)” value in [4] amounted to 145. Moreover, the Signal decrease in the test with human CD137-Fc [5] turned out to be 91.6%; with human CD137-Fc [8], 32%. The “S/N ratio (cyno CD137-Fc/Fc)” value in the test with cyno CD137-Fc was 3.73. The “S/N ratio (human CD137-Fc/Fc)” value in the test with human CD137-Fc [6] is 13.1.

B5: DADU01_3#001 (antibody, V domains shown)
VH: QVQLVESGGGLVQPGRSLRLSCAASGFTFSIAWMHWVRQAPGKGLEWVAQIKDRVNAYEAYYAPSVKGRFTISRDDSKNSIYLQMNSLKTEDTAVYYCRYVHYASYYDLLGYGGVDAWGQGTTVTVSS
VL: DIVMTQSPLSLPVTPGEPASISCRSSQSLVHSNRNTYLHWYQQKPGQAPRLLIYKVSNRFSGVPDRFSGSGSGTDFTLKISRVEAEDVGVYYCGQGTQVPYTFGQGTKLEIK
notes: Human IgG1; light chain GLS3000 (kappa); also called dBBDu126; dBBDu_126
As to B5, the ELISA signal with human CD137-Fc [1] is 81000; in the test with human CD137-Fc [2], 116000; with human CD137-Fc [3] it was 2610; with human CD137-Fc [7], 15100. Moreover, the RLU in test [4] came out at 198000 RLU; in the test with cyno CD137-Fc, 1210 RLU; with human CD137-Fc [6], 95300 RLU. In addition, in test [4], the “S/N ratio (CD3 peptide/non coating)” value is 146. Further, the Signal decrease amounted to 81.3% in the test with human CD137-Fc [5] and 97.8% with human CD137-Fc [8]. In addition, in the test with cyno CD137-Fc, the “S/N ratio (cyno CD137-Fc/Fc)” value worked out at 0.687. Further, in the test with human CD137-Fc [6], the “S/N ratio (human CD137-Fc/Fc)” value was determined as 54.1.

B6: DADU01_3#018 (antibody, V domains shown)
VH: QVQLVESGGGLVQPGRSLRLSCAASGFTFSNAWMHWVRQAPGKGLEWVAQIKDRANSYNAYYAPSVKGRFTISRDDSKNSIYLQMNSLKTEDTAVYYCHYVHYSAASTLLPSFGVDAWGQGTTVTVSS
VL: DIVMTQSPLSLPVTPGEPASISCRSSQSLVHSNRNTYLHWYQQKPGQAPRLLIYKVSNRFSGVPDRFSGSGSGTDFTLKISRVEAEDVGVYYCGQGTQVPYTFGQGTKLEIK
notes: Human IgG1; light chain GLS3000 (kappa); also called dBBDu123
B6: the ELISA signal came out at 117000 with human CD137-Fc [1], 2750 in the test with human CD137-Fc [2], 1840 with human CD137-Fc [3] and 9020 in the test with human CD137-Fc [7]. The RLU in [4] was 182000 RLU; in the test with cyno CD137-Fc it was 6200 RLU; with human CD137-Fc [6] it was 32800 RLU. Further, in [4], the “S/N ratio (CD3 peptide/non coating)” value worked out at 149. Besides, the Signal decrease in the test with human CD137-Fc [5] was determined as 92.3%; with human CD137-Fc [8] it was 33%. Moreover, the “S/N ratio (cyno CD137-Fc/Fc)” value in the test with cyno CD137-Fc was found to be 3.27. In the test with human CD137-Fc [6], the “S/N ratio (human CD137-Fc/Fc)” value was 17.3.

B7: DXDU01_3#094 (antibody, V domains shown)
VH: QVQLVESGGGLVQPGRSLRLSCAASGFTFSNAWMHWVRQAPGKGLEWVAQIKDKGNAYAAYYAPSVKGRFTISRDDSKNSIYLQMNSLKTEDTAVYYCHYVHYASAAGGLPGFGVDAWGQGTTVTVSS
VL: DIVMTQSPLSLPVTPGEPASISCRSSQSLVHSNRNTYLHWYQQKPGQAPRLLIYKVSNRFSGVPDRFSGSGSGTDFTLKISRVEAEDVGVYYCGQGTQVPYTFGQGTKLEIK
notes: Human IgG1; light chain GLS3000 (kappa); also called dBBDu121
In the case of B7, the ELISA signal worked out at 108000 in the test with human CD137-Fc [1], 3610 in the test with human CD137-Fc [2], 1830 with human CD137-Fc [3] and 9660 in the test with human CD137-Fc [7]. Further, the figures for the RLU (in test [4]; with cyno CD137-Fc; in the test with human CD137-Fc [6]) were 165000 RLU, 19100 RLU and 24200 RLU, respectively. In addition, the “S/N ratio (CD3 peptide/non coating)” value in [4] stood at 141. Moreover, the results for the Signal decrease with human CD137-Fc [5] and in the test with human CD137-Fc [8] were 91.1% and 49.4%, respectively. Also, the “S/N ratio (cyno CD137-Fc/Fc)” value in the test with cyno CD137-Fc was 8.09. In addition, the “S/N ratio (human CD137-Fc/Fc)” value with human CD137-Fc [6] was 10.2.
